# In US7795390B2, “Biological substance nesfatin and its related substances and uses thereof” (Teijin Pharma Limited, priority 2005, dated 2010):
# B1: nesfatin-1: 82-residue peptide, amino acid Nos. 25 to 106 of nesfatin (SEQ ID NO: 15), solid-phase synthesis (peptide, listed as Rattus norvegicus)
# chain: VPIDVDKTKVHNVEPVESARIEPPDTGLYYDEYLKQVIEVLETDPHFREKLQKADIEEIRSGRLSQELDLVSHKVRTRLDEL
# Tests used:
# Wistar rats [1] = experiment: Administration of nesfatin-1, nesfatin-2, nesfatin-3, nesfatin-2/3 into the third ventricle, amount of food intake; type: in vivo, rat
# Procedure: Samples used for intracerebral administration were PBS alone (vehicle group), or nesfatin-1, nesfatin-2, nesfatin-3 or nesfatin-2/3 prepared in Working Example 10 each dissolved in PBS, and 25 pmol was administered per individual into the third ventricle immediately before the dark period. Rats used were Wistar rats (purchased from Nippon SLC) and were housed as in Working Example 6, and among 8-9 week-old male Wistar rats, those individuals weighing 200-250 g were selected and used (N=5). The technique of intraventricular administration and the measurement of the amount of food intake in rats were carried out in a method similar to those in Working Example 6. In the measurement of the amount of food intake, the reduced amount of food at 1 hour after administration (0-1 hr) and 2 hours after administration (1-3 hrs) was determined as food intake.
# In the same condition above, 1, 5 or 25 pmol of nesfatin-1 as a sample was administered per rat individual into the third ventricle immediately before the dark period. In this experiment, the amount of food intake was determined at 1 hour after administration (0-1 hr).
# The experimental condition was similar to that in Working Example 12, and 5 pmol of nesfatin-1 was administered into the third ventricle of the rat brain immediately before the start of the dark period, the amount decreased of the food (the amount of food intake) during 1 hour immediately after administration (0-1 hr), during 2 hours from 1 hour after the administration (1-3 hr), during 3 hours from 3 hours after the administration (3-6 hr), and during 6 hours from 6 hours after the administration (6-12 hr) was measured as the amount of food intake. As the control group, the amount of food intake by individuals that received physiological saline alone was measured.
# The experimental condition was similar to that in Working Example 12, and for a group that received 5 pmol of nesfatin-1 alone into the third ventricle of the rat brain immediately before the start of the dark period and a group that received 5 pmol of nesfatin-1 and 8 μg of anti-nesfatin-1 antibody (nesfatin-1 IgG), the amount of food intake for 1 hour after administration was measured and compared to that for the control group (physiological saline alone was administered). Also, for a group that received only leptin (Rat leptin: R & D Systems, 598-LP-01M) (1 μg) which is known to have an activity of suppressing food intake by intraventricular administration and a group that received leptin and anti-nesfatin-1 antibody, its effect on food intake was also studied.
# Wistar rats [2] = experiment: Intraventricular continuous administration of nesfatin-1 by osmotic pump, food intake and body weight; type: in vivo, rat
# Procedure: The administration of nesfatin-1 was carried out into the ventricle by an osmotic pump for 10 consecutive days. Among 8 week-old male Wistar rats (purchased from Nippon SLC), those individuals weighing 200-250 g were used. The rats received intraperitoneal administration of 40 mg/kg body weight of pentobarbital sodium for anesthesia. After the hair was removed from the head, they were fixed in a brain stereotaxic apparatus (David Kopf Instruments, Model 962) and the scalp was incised and a 23G needle (guide cannula) was implanted so that the tip reaches the third ventricle (2.5 mm behind the bregma, 9.5 mm from the surface). One week after implanting the guide cannula, the animals were subjected to the experiment. The osmotic pump used was Alzet's Model 2002. Nesfatin-1 (nesfatin-1 administration group) dissolved in physiological saline that was filter-sterilized with a 0.22 μm Millex GV filter (Millpore Co. Ltd.), or sterilized physiological saline alone (control group) were injected into the osmotic pump immediately before use, and were primed in sterilized physiological saline from the day before use. The osmotic pump to which each sample was connected to a tube connected to the injection cannula, and through the guide cannula previously implanted the injection cannula was fixed so that the tip of the cannula reaches the third ventricle of the rat. In this form of use, the sample is injected to the third ventricle at a flow rate of 12 μl per 24 hours, and in the nesfatin-1 administration group, it is equivalent to 5 pmol of nesfatin-1 per day administered to the ventricle. […] The measurement of the amount of food intake started from the day after the cannula and the osmotic pump were implanted, and the weight of the residual food was measured at 9 a.m. every day, and by determining the difference from the weight of the food on the previous day, the amount of food intake of the day (24 hours) was calculated. From day 6 after the start of administration, body weight was measured at the time of measuring the amount of food intake, and changes in body weight were also recorded.
# [3] = 5 pmol per day, osmotic pump, third ventricle, 10 consecutive days, vs saline
molecule,measurement,setting,value
B1,amount of food intake,"Wistar rats [1]; 5 pmol into the third ventricle, 0-1 hr, 1-3 hr and 3-6 hr, p<0.01 vs control",Significant decreases in the amount of food intake
same,amount of food intake,"Wistar rats [1]; 5 pmol into the third ventricle, 6-12 hr, p<0.01 vs control",an increase in the amount of food intake
same,amount of food intake,"Wistar rats [1]; 5 pmol or 25 pmol intraventricular, 0-1 hr",significant decreased amount of food intake
same,amount of food intake,"Wistar rats [1]; 25 pmol into the third ventricle before dark period, 0-1 hr and 1-3 hr, vs control",marked effect on the suppression of feeding
same,amount of food intake,"Wistar rats [1]; 1, 5 or 25 pmol per rat intraventricular, 0-1 hr, vs saline","decreased amount of food intake, with the increased amount of the administered nesfatin-1"
same,amount of food intake of the day (24 hours),Wistar rats [2]; [3],a decrease in the amount of food intake was noted from day 1
same,rate of increase in body weight,Wistar rats [2]; [3],significantly declined
same,food intake and/or body weight gain,"Wistar rats [2]; recombinant highly purified nesfatin-1 (Working Example 16), intraventricular as in Working Example 13",the effect of suppressing food intake and/or suppressing body weight gain was noted
